Results on 64 sequences are retold here after the supplement of paper PMC7877785.

The series in a line: self-splicing fitness, log relative to wild type (ln ratio); higher = more splicing; Tetrahymena group I intron in knt gene, E. coli kanamycin selection, DiMSum; sequences stand for … in CUCUCU…GGAGGGAAAAGUUAUCAGGCAUGCACCUGGUAGCUAGUCUUUAAACCAAUAGAUUGCAUCGGUUUAAAAGGCAAGACCGUCAAAUUGCGGGAAAGGGGUCAACAGCCGUUCAGUACCAAGUCUCAGGGGAAACUUUGAGAUGGCCUUGCAAAGGGUAUGGUAAUAAGCUGACGGACAUGGUCCUAACCACGCAGCCAAGUCCUAAGUCAACAGAUCUUCUGUUGAUAUGGAUGCAGUUCACAGACUAAAUGUCGGUCGGGGAAGAUGUAUUCUUCUCAUAAGAUAUAGUCGGACCUCUCCUUAAUGGGAGCUAGCGGAUGAAGUGAUGCAACACUGGAGCCGCUGGGAACUAAUUUGUAUGCGAAAGUAUAUUGAUUAGUUUUGGAGUACUCGUGGUCG
The method, boiled down:
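Library with all eight P1ex-region intron nucleotides randomised, intron inside the knt kanamycin-resistance gene on pET-22b(+), in E. coli BL21(DE3). Cells grew overnight at 37°C or 30°C on LB agar with or without 25 μg/mL kanamycin (plus 100 μg/mL carbenicillin, 50 μM IPTG, 0.2% rhamnose), in six replicate transformations. Pooled colonies were amplicon-sequenced on Illumina HiSeq 2500. DiMSum fitness is the error-weighted combination of wild-type-normalised replicate fold changes, kanamycin versus none.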

± gives the uncertainty stated by the source.

For the sequence CAAAAGCAAUAUUACGAUCG, the “self-splicing fitness (ln)” value came out at 0.0933 ± 0.07 (30 °C) and 0.514 ± 0.09 (37 °C).

In the case of CCCUAGCAAUAUUACGACGU, the “self-splicing fitness (ln)” value by setting is: (30 °C) -3.83 ± 0.29; (37 °C) -3.29 ± 0.47. The corresponding values for AAACAGCAAUAUUACGAUCG are -2.18 ± 0.11 and -0.0291 ± 0.11.

On to AGCGAGCAAUAUUACGUCCU, for which the “self-splicing fitness (ln)” value is, setting by setting: (30 °C) -0.026 ± 0.17; (37 °C) -0.661 ± 0.18.

CAUAAGCAAUAUUACGCUAA: the “self-splicing fitness (ln)” value is, setting by setting: (30 °C) -2.58 ± 0.3; (37 °C) -0.864 ± 0.24. The corresponding values for CGAAAGCAAUAUUACGAUAU are -3.42 ± 0.28 and -1.27 ± 0.2. On to AUCCAGCAAUAUUACGAGUU, for which the “self-splicing fitness (ln)” value runs as follows: (30 °C) -1.33 ± 0.063; (37 °C) -0.782 ± 0.077. The corresponding values for CCAGAGCAAUAUUACGACAU are -3.776 ± 0.029 and -3.03 ± 0.043. In the case of CAACAGCAAUAUUACGAUAG, the “self-splicing fitness (ln)” value was -0.377 ± 0.052 (30 °C) and 0.653 ± 0.07 (37 °C).

Consider GCUAAGCAAUAUUACGGUAG, for which the “self-splicing fitness (ln)” value is -3.12 ± 0.21 (30 °C) and -3.35 ± 0.3 (37 °C). The corresponding values for CAUUAGCAAUAUUACGAUAC are -3.07 ± 0.47 and -2.23 ± 0.43. The corresponding values for UAAGAGCAAUAUUACGAUAG are -3.46 ± 0.31 and -2.12 ± 0.33. In the same order, the values of UGAAAGCAAUAUUACGUCAU are -4.25 ± 0.22 and -1.77 ± 0.14. For CUGAAGCAAUAUUACGGAAU, the “self-splicing fitness (ln)” value (30 °C) was -3.01 ± 0.15 and the “self-splicing fitness (ln)” value (37 °C) was -1.96 ± 0.15. In the same order, the values of UGUAAGCAAUAUUACGAACA are -0.358 ± 0.14 and 0.219 ± 0.17. The corresponding values for UUUUAGCAAUAUUACGAGAG are -1.12 ± 0.18 and -0.225 ± 0.21. The corresponding values for CACUAGCAAUAUUACGAUAC are -3.41 ± 0.28 and -2.81 ± 0.38. Consider CAUAAGCAAUAUUACGAGUA, for which the “self-splicing fitness (ln)” value was -2.34 ± 0.15 (30 °C) and -1.45 ± 0.15 (37 °C). In the same order, the values of CAAGAGCAAUAUUACGUCGC are -4.54 ± 0.38 and -2.38 ± 0.29. For CGUCAGCAAUAUUACGCCAC, under “37 °C”, the “self-splicing fitness (ln)” value was -1.01 ± 0.45. ACUCAGCAAUAUUACGUGGC: the “self-splicing fitness (ln)” value by setting is: (30 °C) -3.04 ± 0.14; (37 °C) -2.9 ± 0.17. For the sequence GUUAAGCAAUAUUACGGUGG, the “self-splicing fitness (ln)” value is, setting by setting: (30 °C) -3.52 ± 0.17; (37 °C) -1.78 ± 0.15.

For the sequence ACGAAGCAAUAUUACGCGGA, the “self-splicing fitness (ln)” value by setting is: (30 °C) -1.96 ± 0.17; (37 °C) -1.33 ± 0.13. In the case of CACUAGCAAUAUUACGGAGA, under “37 °C”, the “self-splicing fitness (ln)” value is -2.39 ± 0.22. Regarding ACAGAGCAAUAUUACGGCAC, under “37 °C”, the “self-splicing fitness (ln)” value was -2.62 ± 0.44.

As for AUAGAGCAAUAUUACGGUCA, the “self-splicing fitness (ln)” value reads like this: (30 °C) -1.48 ± 0.14; (37 °C) -0.634 ± 0.21. The corresponding values for ACCGAGCAAUAUUACGGGUA are -2.6 ± 0.16 and -0.706 ± 0.13. As to UUCCAGCAAUAUUACGCAGC, the “self-splicing fitness (ln)” value was -3.77 ± 0.33 (30 °C) and -2.31 ± 0.35 (37 °C). In the case of GACGAGCAAUAUUACGAUGC, the “self-splicing fitness (ln)” value was -3.82 ± 0.44 (30 °C) and -0.275 ± 0.21 (37 °C). For GGCCAGCAAUAUUACGGGUU, the “self-splicing fitness (ln)” value is, setting by setting: (30 °C) -3.08 ± 0.17; (37 °C) -2.06 ± 0.19. In the same order, the values of GAUUAGCAAUAUUACGUGAA are -3.07 ± 0.17 and -1.48 ± 0.14.

As to UCACAGCAAUAUUACGUCAU, the “self-splicing fitness (ln)” value runs as follows: (30 °C) -3.09 ± 0.17; (37 °C) -1.43 ± 0.12. In the same order, the values of AGGGAGCAAUAUUACGCGGA are -2.2 ± 0.21 and -2.68 ± 0.3. With UUUGAGCAAUAUUACGGGGA, the “self-splicing fitness (ln)” value (37 °C) was -2.42 ± 0.41.

Turning to CAUGAGCAAUAUUACGGUUG, the “self-splicing fitness (ln)” value is -1.97 ± 0.094 (30 °C) and -0.986 ± 0.12 (37 °C). In the same order, the values of GGCAAGCAAUAUUACGCUUG are -3.26 ± 0.2 and -3.49 ± 0.34. As to CCUUAGCAAUAUUACGGGUU, the “self-splicing fitness (ln)” value (37 °C) was -1.5 ± 0.21. On the same count and under the same terms, the value for UCGGAGCAAUAUUACGGACA was -1.38 ± 0.37. For the sequence UAUCAGCAAUAUUACGGGAU, the “self-splicing fitness (ln)” value was -3.78 ± 0.24 (30 °C) and -1.72 ± 0.14 (37 °C). For the sequence CCAGAGCAAUAUUACGCCUG, the “self-splicing fitness (ln)” value (37 °C) is -2.66 ± 0.36.

As for UAUGAGCAAUAUUACGAAUU, the “self-splicing fitness (ln)” value is, setting by setting: (30 °C) -2.36 ± 0.33; (37 °C) -1.73 ± 0.32. Consider UCACAGCAAUAUUACGACUA, for which the “self-splicing fitness (ln)” value is, setting by setting: (30 °C) -1.21 ± 0.14; (37 °C) -0.431 ± 0.12.

As to UUUGAGCAAUAUUACGAUUU, the “self-splicing fitness (ln)” value by setting is: (30 °C) -3.28 ± 0.24; (37 °C) -2.05 ± 0.27.

On to GGUAAGCAAUAUUACGGAAG, for which the “self-splicing fitness (ln)” value runs as follows: (30 °C) -3.03 ± 0.18; (37 °C) -2.56 ± 0.26. The corresponding values for UGUGAGCAAUAUUACGGUGU are -3 ± 0.31 and -2.84 ± 0.24. In the same order, the values of UUAAAGCAAUAUUACGGGCA are -0.351 ± 0.12 and 0.329 ± 0.16. The corresponding values for AAAUAGCAAUAUUACGGAGC are -3.73 ± 0.3 and -2.26 ± 0.17. Regarding AUCUAGCAAUAUUACGAAAA, the “self-splicing fitness (ln)” value (37 °C) is -2.38 ± 0.33. Take AAUAAGCAAUAUUACGCGUA: the “self-splicing fitness (ln)” value is -1.25 ± 0.14 (30 °C) and -0.929 ± 0.13 (37 °C).

Regarding CUGUAGCAAUAUUACGUAGU, the “self-splicing fitness (ln)” value runs as follows: (30 °C) -4.78 ± 0.36; (37 °C) -2.65 ± 0.35. Consider GGGAAGCAAUAUUACGGGGA, for which the “self-splicing fitness (ln)” value (30 °C) is -1.49 ± 0.2 and the “self-splicing fitness (ln)” value (37 °C) is -2.65 ± 0.29.

As to UUUGAGCAAUAUUACGAAGU, for the setting “37 °C”, the “self-splicing fitness (ln)” value was -2.67 ± 0.3. On to UGAAAGCAAUAUUACGUGGU, for which the “self-splicing fitness (ln)” value reads like this: (30 °C) -3.22 ± 0.17; (37 °C) -2.55 ± 0.23.

Consider UGAUAGCAAUAUUACGGCGU, for which the “self-splicing fitness (ln)” value is -2.1 ± 0.18 (30 °C) and -1.22 ± 0.16 (37 °C). The corresponding values for CAGCAGCAAUAUUACGCGAC are -2.71 ± 0.39 and -0.925 ± 0.25.

Consider CCGGAGCAAUAUUACGCUUA, for which the “self-splicing fitness (ln)” value by setting is: (30 °C) -2.45 ± 0.24; (37 °C) -3.19 ± 0.35.

Regarding UUACAGCAAUAUUACGAGGC, where the note is “37 °C”, the “self-splicing fitness (ln)” value was -1.85 ± 0.3. For the sequence UGGGAGCAAUAUUACGAGCG, the “self-splicing fitness (ln)” value was -1.56 ± 0.14 (30 °C) and -0.816 ± 0.15 (37 °C).

On to GUCAAGCAAUAUUACGCGUC, for which the “self-splicing fitness (ln)” value is, setting by setting: (30 °C) -2.99 ± 0.15; (37 °C) -2.22 ± 0.19. As for CAGGAGCAAUAUUACGAGCG, the “self-splicing fitness (ln)” value runs as follows: (30 °C) -1.04 ± 0.13; (37 °C) 0.24 ± 0.11.

As for AUUCAGCAAUAUUACGGGGA, the “self-splicing fitness (ln)” value by setting is: (30 °C) -1.93 ± 0.094; (37 °C) -0.802 ± 0.083. The corresponding values for GCCAAGCAAUAUUACGCGAU are -3.73 ± 0.14 and -2.64 ± 0.18. On to ACGGAGCAAUAUUACGAGAC, for which the “self-splicing fitness (ln)” value (30 °C) is -0.64 ± 0.18. AGUUAGCAAUAUUACGCCCG: the “self-splicing fitness (ln)” value reads like this: (30 °C) -1.52 ± 0.44; (37 °C) 0.364 ± 0.45.
